Reference: patent publication US20120058906A1 (published 2012)

Experiments:
[1] = target: T1, rHuman P-Cadherin/Fc Chimera, CF (R&D Systems Cat#861-PC) (human, UniProt P22223 108-654); test: MSD ECL multi-spot plate, antigen immobilized; Fab 0.32 nM; blank spot 513
T1 construct: Purchased Fc chimera; not shown: Fc portion of the purchased chimera

[2] = target: T2, rHuman HGF R/c-MET/Fc Chimera, CF (R&D Systems Cat#358-MT/CF) (human, UniProt P08581 25-932); test: as above
T2 construct: Purchased Fc chimera; also called HGF R/Fc; not shown: Fc portion of the purchased chimera

[3] = target: T3, Recombinant Human DLL4 (R&D Systems Cat#1506-D4/CF) (human, UniProt Q9NR61 27-524); test: as above
T3 construct: Purchased recombinant protein; also called delta-like protein 4

[4] = target: T4, rHuman Erythropoietin R/Fc Chimera, CF (R&D Systems Cat#963-ER) (human, UniProt P19235 25-250); test: as above
T4 construct: Purchased Fc chimera; also called EPO R/Fc; Epo R; not shown: Fc portion of the purchased chimera
T4 sequence: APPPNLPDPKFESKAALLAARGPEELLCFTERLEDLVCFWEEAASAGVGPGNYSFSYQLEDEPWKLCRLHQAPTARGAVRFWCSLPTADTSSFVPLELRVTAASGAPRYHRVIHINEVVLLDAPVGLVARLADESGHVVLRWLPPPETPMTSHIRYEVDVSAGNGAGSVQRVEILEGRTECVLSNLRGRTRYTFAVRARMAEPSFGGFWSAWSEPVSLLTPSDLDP

[5] = target: T5, rHuman CD44/Fc Chimera, CF (R&D Systems Cat#3660-CD) (human, UniProt P16070 21-220); test: as above
T5 construct: Purchased Fc chimera; not shown: Fc portion of the purchased chimera

[6] = target: T6, rHuman EGF R/Fc Chimera, CF (R&D Systems Cat#344-ER) (human, UniProt P00533 25-645); test: as above
T6 construct: Purchased Fc chimera; not shown: Fc portion of the purchased chimera

[7] = target: T7, rHuman ErbB2/Fc Chimera, CF (R&D Systems Cat#1129-ER) (human, UniProt P04626 23-652); test: as above
T7 construct: Purchased Fc chimera; also called HER2/neu; not shown: Fc portion of the purchased chimera

[8] = target: T8, rHuman Notch-1/Fc Chimera, CF (R&D Systems Cat#3647-TK) (human, UniProt P46531 19-526); test: as above
T8 construct: Purchased Fc chimera; not shown: Fc portion of the purchased chimera

[9] = target: T9, rHuman IGF-1 sR (IGF-1 sR), CF (R&D Systems Cat#391-GR) (human, UniProt P08069 31-932); test: as above
T9 construct: Purchased soluble receptor; also called insulin-like growth factor-1 soluble receptor; IGF-R1

[10] = target: T10, Recombinant Human DLL4 (R&D Systems Cat#1506-D4/CF) (human, UniProt Q9NR61 27-524); test: MSD ECL titration, Fab 2383 nM, blank 344
T10 construct: Bought recombinant protein; also called rHuman DLL4; delta-like protein 4

[11] = target: T11, rHuman P-Cadherin/Fc Chimera, CF (R&D Systems Cat#861-PC) (human, UniProt P22223 108-654); test: ECL (MSD multi-spot), antigen on plate, Fab 2 nM
T11 construct: Bought Fc chimera; also called CDH3; not shown: Fc of the bought chimera

[12] = target: T12, rHuman IGF-1 sR (insulin-like growth factor-1 soluble receptor), CF (R&D Systems Cat#391-GR) (human, UniProt P08069 31-932); test: ECL (MSD multi-spot), antigen on plate, Fab 2 nM
T12 construct: Bought soluble receptor; also called IGF-R1

[13] = target: T13, rHuman Notch-1/Fc Chimera, CF (R&D Systems Cat#3647-TK) (human, UniProt P46531 19-526); test: ECL (MSD multi-spot), antigen on plate, Fab 2 nM
T13 construct: Bought Fc chimera; not shown: Fc of the bought chimera

[14] = target: T14, Recombinant Human DLL4 (R&D Systems Cat#1506-D4/CF) (human, UniProt Q9NR61 27-524); test: ECL (MSD multi-spot), antigen on plate, Fab 2 nM
T14 construct: Bought recombinant protein; also called delta-like protein 4

[15] = target: T15, rHuman ErbB2/Fc Chimera, CF (R&D Systems Cat#1129-ER) (human, UniProt P04626 23-652); test: ECL (MSD multi-spot), antigen on plate, Fab 2 nM
T15 construct: Bought Fc chimera; also called HER2/neu; not shown: Fc of the bought chimera

[16] = target: T16, rHuman CD44/Fc Chimera, CF (R&D Systems Cat#3660-CD) (human, UniProt P16070 21-220); test: ECL (MSD multi-spot), antigen on plate, Fab 2 nM
T16 construct: Bought Fc chimera; not shown: Fc of the bought chimera

[17] = target: T17, rHuman Erythropoietin R/Fc Chimera, CF (R&D Systems Cat#963-ER) (human, UniProt P19235 25-250); test: ECL (MSD multi-spot), antigen on plate, Fab 2 nM
T17 construct: Bought Fc chimera; also called EPO R/Fc; Epo R; not shown: Fc of the bought chimera
T17 sequence: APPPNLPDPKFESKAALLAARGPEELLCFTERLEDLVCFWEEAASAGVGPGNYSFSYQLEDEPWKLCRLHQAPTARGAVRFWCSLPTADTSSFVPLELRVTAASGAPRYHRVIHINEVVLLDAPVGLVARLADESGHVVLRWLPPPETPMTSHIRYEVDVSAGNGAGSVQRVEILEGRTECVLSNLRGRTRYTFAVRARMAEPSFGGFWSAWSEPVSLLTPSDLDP

[18] = target: T18, rHuman EGF R/Fc Chimera, CF (R&D Systems Cat#344-ER) (human, UniProt P00533 25-645); test: ECL (MSD multi-spot), antigen on plate, Fab 2 nM
T18 construct: Bought Fc chimera; also called ErbB-1; not shown: Fc of the bought chimera

[19] = target: T19, rHuman HGF R/c-MET/Fc Chimera, CF (R&D Systems Cat#358-MT/CF) (human, UniProt P08581 25-932); test: ECL (MSD multi-spot), antigen on plate, Fab 2 nM
T19 construct: Bought Fc chimera; also called HGF R/Fc; not shown: Fc of the bought chimera
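Further: blank spot per well as comparator with Hit at signal to blank ratio of 4 or more.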

B1: Fab VH5-51_IGHD5-18*01>3_IGHJ4*01_G100R & V3-4_IGLJ1*01 (Fab, V domains shown)
VH: EVQLVQSGAEVKKPGESLKISCKGSGYSFTSYWIGWVRQMPGKGLEWMGIIYPGDSDTRYSPSFQGQVTISADKSISTAYLQWSSLKASDTAMYYCARRRYSYGYDYFDYWGQGTLVTVSS
VL: QTVVTQEPSFSVSPGGTVTLTCGLSSGSVSTSYYPSWYQQTPGQAPRTLIYSTNTRSSGVPDRFSGSILGNKAALTITGAQADDESDYYCVLYMGSGISYVFGTGTKVTVL
notes: It was expressed as a Fab: CH1 with tags from Plasmid A and lambda CL from Plasmid E; also called Fab No. 23
Work on B1 yielded an ECL signal [1] of 656 ECL signal, an ECL signal [2] of 1290 ECL signal and an ECL signal [3] of 1210 ECL signal. It also gave an ECL signal [4] of 851 ECL signal, an ECL signal [5] of 877 ECL signal and an ECL signal [6] of 1220 ECL signal. For the same binder, the ECL signal [7] was 1480 ECL signal, the ECL signal [8] was 983 ECL signal and the ECL signal [9] was 1250 ECL signal.

B2: Fab VH1-46_IGHD6-6*01_IGHJ1*01 & L6_IGKJ1*01 (Fab, V domains shown)
VH: QVQLVQSGAEVKKPGASVKVSCKASGYTFTSYYMHWVRQAPGQGLEWMGIINPSGGSTSYAQKFQGRVTMTRDTSTSTVYMELSSLRSEDTAVYYCAREEYSSSSAEYFQHWGQGTLVTVSS
VL: not shown
notes: Expressed in E. coli as Fab: heavy chain with CH1 plus Flag and His tags from Plasmid A, kappa light chain constant region from Plasmid C; also called Fab No. 1
Work on B2 yielded an ECL signal [10] of 11800.

B3: Fab VH1-46_IGHD6-6*01_IGHJ1*01_S102A_S103P_S104F & L6_IGKJ1*01_S31K (Fab, V domains shown)
VH: QVQLVQSGAEVKKPGASVKVSCKASGYTFTSYYMHWVRQAPGQGLEWMGIINPSGGSTSYAQKFQGRVTMTRDTSTSTVYMELSSLRSEDTAVYYCAREEYAPFSAEYFQHWGQGTLVTVSS
VL: EIVLTQSPATLSLSPGERATLSCRASQSVSKYLAWYQQKPGQAPRLLIYDASNRATGIPARFSGSGSGTDFTLTISSLEPEDFAVYYCQQRSNWPPWTFGQGTKVEIKR
notes: Fab
In the case of B3, the ECL signal [11] is reported as 351 ECL signal, the ECL signal [12] is reported as 222 ECL signal and the ECL signal [13] is reported as 202 ECL signal. It also gave an ECL signal [14] of 10500 ECL signal, an ECL signal [15] of 337 ECL signal and an ECL signal [16] of 146 ECL signal. The ECL signal [17] was 326 ECL signal, the ECL signal [18] was 197 ECL signal and the ECL signal [19] was 183 ECL signal.
